Data set [1] concerns N[C@@H](CCC(=O)O)C(=O)O. As to the kind of experiment: Aminoacylation of 32P-tRNA with α- and β3-amino acids. The following applies: other: aminoacylation, GluRS. The data set is classed as biochemical, E. coli.
Data set [2] concerns N[C@@H](CCC(=O)O)C(=O)O. As to the kind of experiment: purified protein, by the assay type. The following applies: other: adenylation, GluRS; pH 7.0; 25.0 °C.
Method: Adenylation of α- and β-Amino Acids Catalyzed by E. coli PheRS, GlyRS, MetRS, and GluRS. […] Briefly, assay mixtures (50 μL) assembled at 25° C. contained the requisite α- or β^3-amino acid substrate (between 5 μM and 5 mM) in 100 mM HEPES (pH 7.0) containing 100 mM KCl, 15 mM MgCl2, 2 mM ATP, 0.5 mM NaPPi, and 50 μCi [^32P]-NaPPi). Reactions were initiated upon addition of enzyme (10 nM MetRS, 10 nM PheRS, or 50 nM GlyRS; 100 nM GluRS for reactions with α-Glu or 1.13 μM GluRS for reactions with β^3-Glu), incubated for various times (10 sec to 10 min), and halted by adding a 5 μL reaction aliquot to 100 μL quenching solution (10% charcoal, 0.5% HCl). 50 μL of 200 mM NaPPi in 1.5 N HCl was then added to each quenched reaction to decrease nonspecific binding of pyrophosphate to the charcoal. Each quenched reaction was then filtered through Whatman filter paper (number 3), previously washed with washing solution (200 mM NaPPi in 1 N HCl) using a 96-well BIO-DOT® apparatus (BioRad). Each well of the apparatus was then washed four times with 200 μL aliquots of washing solution (by pipetting washing solution up and down at least 10 times per wash) to minimize nonspecific binding of pyrophosphate to charcoal. Each experimental well was paired with an analogous control well (no-enzyme control) that lacked enzyme; a single membrane contained time points for both α- and β^3-amino acid substrates and all no-enzyme controls. The membrane was allowed to dry and was protected with a sheet of Microseal B adhesive seals (Biorad) prior to exposure to a BAS Storage Phosphor screen. Screens were imaged on a Typhoon 9500FLA biomolecule imager and the signal intensity of each dot was quantified using ImageJ to determine the relative amount of [^32P]-ATP formed as a function of time (Ctime). Each raw value were corrected by subtracting the intensity of the dot corresponding to the appropriate no-enzyme control (Cblank) and the resulting corrected values of Ccorr (representing the relative amounts of ^32P-ATP formed) were plotted as a function of time to determine values of relative ^32P-ATP formed per minute. Those values were divided by the concentration of enzyme used, and the data was plotted as relative specific activity (^32P-ATP formed min^−1×μM^−1 enzyme) and fitted using Prism by performing nonlinear regression using the least squares method and Equation 1 to obtain RSA (relative specific activity) and KM values (Equation 1 and Table 2).
In Equation 1, v is the apparent relative specific activity (relative ^32P-ATP formed per minute) obtained at each substrate concentration divided by the enzyme concentration, RSA is the relative specific activity, S is the concentration of substrate, and KM is the Michaelis-Menten constant.

For E. coli GluRS (Escherichia coli K-12), in the data set with N[C@@H](CCC(=O)O)C(=O)O [1], the Km worked out at 277.1 ± 101.5 µM, the kcat was determined as 0.000767 ± 6.67e-05 s⁻¹ and the kcat/Km is 2.67 ± 1 M⁻¹ s⁻¹. Moreover, in the data set on N[C@@H](CCC(=O)O)C(=O)O [2], the Km was found to be 76.4 ± 43.0 µM, the kcat turned out to be 22.5 ± 3.43 s⁻¹ and the kcat/Km worked out at 293000 ± 172000 M⁻¹ s⁻¹.

For the origin of these results see patent publication US11203773B2, “Designer ribosomes and methods of use thereof for incorporating non-standard amino acids into polypeptides” (Yale University, priority 2016, dated 2021).
